From publication PMC12297416

Molecular target: NusA (E. coli (endogenous in MG1655)) (UniProt P0AFF6)
Test: single-molecule tracking in live cells; HaloTag fusions labelled with JFX549 in growing E. coli at 37 °C; 5 ms camera exposure; HMM fit of diffusion trajectories, 5-state models coarse-grained with a threshold at 1 µm^2/s (slow diffusion state = bound)

dwell time in the slow-diffusion state: 30 ms | occupancy in the slow state (after cell sorting by size): 11% | steady-state fraction in the slow-diffusion state: 14%
Substance: IF2-Domain-I-HaloTag (domain or fragment)
